Data from article PMC4599368 (Cell reports, 2015).

B1: EBOV NP residues 1–457 (NPNTD) (domain or fragment)
chain: MDSRPQKIWMAPSLTESDMDYHKILTAGLSVQQGIVRQRVIPVYQVNNLEEICQLIIQAFEAGVDFQESADSFLLMLCLHHAYQGDYKLFLESGAVKYLEGHGFRFEVKKRDGVKRLEELLPAVSSGKNIKRTLAAMPEEETTEANAGQFLSFASLFLPKLVVGEKACLEKVQRQIQVHAEQGLIQYPTAWQSVGHMMVIFRLMRTNFLIKFLLIHQGMHMVAGHDANDAVISNSVAQARFSGLLIVKTVLDHILQKTERGVRLHPLARTAKVKNEVNSFKAALSSLAKHGEYAPFARLLNLSGVNNLEHGLFPQLSAIALGVATAHGSTLAGVNVGEQYQQLREAATEAEKQLQQYAESRELDHLGLDDQEKKILMNFHQKKNEISFQQTNAMVTLRKERLAKLTEAITAASLPKTSGHYDDDDDIPFPGPINDDDNPGHQDDDPTDSQDTTIPDV

Legend:
[1] = system: ΔNPNTD (NP 25-457) (Zaire ebolavirus (EBOV)); test: filter binding
SEC = molecular target: the molecule itself; test: SEC

| Molecule | Kd [1] | binding result (SEC) |
| --- | --- | --- |
| 20 nt ssRNA | 620 nM |  |
| B1 |  | binds |
